# Source: publication PMC5454392, “Selective BET bromodomain inhibition as an antifungal therapeutic strategy” (Nature Communications, 2017)
# Read-outs that look alike come from different tables or passages of the source.
# Key:
# CaBdf1 BD2 Y425F = molecular target: T1, CaBdf1 BD2 Y425F (Candida albicans, UniProt Q5A4W8, Y425F); assay: Histone peptide microarray binding, YF mutant;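 on CaBdf1 BD2 Normalized (0 to 100%) YF mutant: normalized to spotted c-myc peptide positive control signal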; set-up: species or system C. albicans; conditions: YF mutant BD2; for CaBdf1 BD2 Normalized (0 to 100%) YF mutant: normalized array signal; for CaBdf1 BD2 Raw data YF mutant: peptide array signal
# T1 construct: made in house; host or cells: E. coli BL21(DE3), inferred from the wild-type GST construct
# Experimental: (§1) In short, arrays were blocked and incubated with 1 μM of purified CaBdf1 BD1 or BD2. Arrays were incubated with recombinant BDs for 2 h at 4 °C in binding buffer (Tris-HCl 50 mM pH 7.4, NP-40 0.1%, NaCl 150 mM, glycerol 10%). […] Assays were performed in duplicate. Images were acquired on a Bio-Rad ChemiDoc XRS Imaging machine and data were quantified using the array analyser software provided by Active Motif.
# CaBdf1 BD1 Y248F = molecular target: T2, CaBdf1 BD1 Y248F (Candida albicans, UniProt Q5A4W8, Y248F); assay: Histone peptide microarray binding, YF mutant;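 on CaBdf1 BD1 Normalized (0 to 100%) YF mutant: normalized to spotted c-myc peptide positive control signal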; set-up: species or system C. albicans; conditions: YF mutant BD1; for CaBdf1 BD1 Normalized (0 to 100%) YF mutant: normalized array signal; for CaBdf1 BD1 Raw data YF mutant: peptide array signal
# T2 construct: made in house; host or cells: E. coli BL21(DE3), inferred from the wild-type GST construct
# Experimental: as §1
# CaBdf1 BD2 = molecular target: T3, CaBdf1 BD2 (Candida albicans, UniProt Q5A4W8); type: binding; conditions: wild-type BD2; for CaBdf1 BD2 Normalized (0 to 100%) WT: normalized array signal; for CaBdf1 BD2 Raw data WT: peptide array signal;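 on CaBdf1 BD2 Normalized (0 to 100%) WT: normalized to spotted c-myc peptide positive control signal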
# T3 construct: made in house; host or cells: E. coli BL21(DE3)
# T3 sequence (Q5A4W8 whole entry, looked up): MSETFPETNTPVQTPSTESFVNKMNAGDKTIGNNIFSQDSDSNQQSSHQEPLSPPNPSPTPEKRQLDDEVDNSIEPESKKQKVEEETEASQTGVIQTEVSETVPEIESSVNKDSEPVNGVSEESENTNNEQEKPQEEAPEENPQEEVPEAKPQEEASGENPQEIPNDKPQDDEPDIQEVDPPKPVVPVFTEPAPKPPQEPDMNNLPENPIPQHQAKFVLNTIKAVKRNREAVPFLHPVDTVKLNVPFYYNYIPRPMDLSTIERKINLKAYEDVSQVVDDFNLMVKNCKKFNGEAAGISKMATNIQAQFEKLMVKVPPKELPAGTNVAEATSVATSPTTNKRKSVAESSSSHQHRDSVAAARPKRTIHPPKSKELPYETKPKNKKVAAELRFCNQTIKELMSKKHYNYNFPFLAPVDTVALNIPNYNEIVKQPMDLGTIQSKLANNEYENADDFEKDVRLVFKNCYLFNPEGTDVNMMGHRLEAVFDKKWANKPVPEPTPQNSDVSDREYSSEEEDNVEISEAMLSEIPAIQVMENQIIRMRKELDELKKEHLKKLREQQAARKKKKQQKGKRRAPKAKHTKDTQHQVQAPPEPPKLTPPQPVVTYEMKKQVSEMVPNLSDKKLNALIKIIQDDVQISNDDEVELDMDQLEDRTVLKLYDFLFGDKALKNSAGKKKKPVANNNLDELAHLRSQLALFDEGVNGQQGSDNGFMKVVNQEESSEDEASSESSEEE
# Experimental: (§2) In short, arrays were blocked and incubated with 1 μM of purified CaBdf1 BD1 or BD2. Arrays were incubated with recombinant BDs for 2 h at 4 °C in binding buffer (Tris-HCl 50 mM pH 7.4, NP-40 0.1%, NaCl 150 mM, glycerol 10%). […] Assays were performed in duplicate.
# CaBdf1 BD1 = molecular target: T4, CaBdf1 BD1 (Candida albicans, UniProt Q5A4W8); type: binding; conditions: wild-type BD1; for CaBdf1 BD1 Normalized (0 to 100%) WT: normalized array signal; for CaBdf1 BD1 Raw data WT: peptide array signal;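 on CaBdf1 BD1 Normalized (0 to 100%) WT: normalized to spotted c-myc peptide positive control signal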
# T4 construct: made in house; host or cells: E. coli BL21(DE3)
# T4 sequence (Q5A4W8 whole entry, looked up): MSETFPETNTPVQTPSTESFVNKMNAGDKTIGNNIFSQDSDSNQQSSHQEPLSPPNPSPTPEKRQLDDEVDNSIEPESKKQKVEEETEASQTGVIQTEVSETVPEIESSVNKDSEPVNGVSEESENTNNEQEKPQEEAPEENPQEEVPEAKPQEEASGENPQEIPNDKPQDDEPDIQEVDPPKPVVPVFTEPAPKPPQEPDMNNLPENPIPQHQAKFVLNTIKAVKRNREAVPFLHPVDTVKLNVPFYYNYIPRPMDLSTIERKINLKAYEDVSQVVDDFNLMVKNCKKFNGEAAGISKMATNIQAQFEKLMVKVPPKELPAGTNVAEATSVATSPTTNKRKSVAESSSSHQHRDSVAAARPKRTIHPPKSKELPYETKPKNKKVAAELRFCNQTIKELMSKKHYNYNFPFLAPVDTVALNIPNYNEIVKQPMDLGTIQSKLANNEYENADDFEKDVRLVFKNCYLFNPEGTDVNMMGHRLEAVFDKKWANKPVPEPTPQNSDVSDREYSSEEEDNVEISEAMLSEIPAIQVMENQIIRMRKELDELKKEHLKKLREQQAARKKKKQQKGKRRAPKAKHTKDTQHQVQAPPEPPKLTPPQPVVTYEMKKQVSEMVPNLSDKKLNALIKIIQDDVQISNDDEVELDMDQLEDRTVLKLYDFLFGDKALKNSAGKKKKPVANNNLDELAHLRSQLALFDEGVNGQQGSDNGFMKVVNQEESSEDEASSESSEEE
# Experimental: as §2
# T1 sequence (Q5A4W8 361-501 Y425F): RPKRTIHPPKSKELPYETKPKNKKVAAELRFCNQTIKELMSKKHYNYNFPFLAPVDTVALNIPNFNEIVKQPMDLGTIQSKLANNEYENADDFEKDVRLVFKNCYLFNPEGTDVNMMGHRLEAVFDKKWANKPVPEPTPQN
# T2 sequence (Q5A4W8 193-327 Y248F): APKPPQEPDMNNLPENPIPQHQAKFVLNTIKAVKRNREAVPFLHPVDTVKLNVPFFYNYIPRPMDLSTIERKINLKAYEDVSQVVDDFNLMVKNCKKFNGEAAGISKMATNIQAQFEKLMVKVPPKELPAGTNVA
sequence,measurement,setting,value
A Rme2s T Kac Q T A R Kme1 S T G G K A P R K Q,CaBdf1 BD2 Normalized (0 to 100%) YF mutant,CaBdf1 BD2 Y425F,0.244%
same,CaBdf1 BD2 Raw data YF mutant,CaBdf1 BD2 Y425F; first of two raw-data columns,0.002427
same,CaBdf1 BD2 Raw data YF mutant,CaBdf1 BD2 Y425F,0.002427
same,CaBdf1 BD1 Normalized (0 to 100%) YF mutant,CaBdf1 BD1 Y248F,0.727%
same,CaBdf1 BD1 Raw data YF mutant,CaBdf1 BD1 Y248F; first of two raw-data columns,0.007202
same,CaBdf1 BD1 Raw data YF mutant,CaBdf1 BD1 Y248F,0.002743
same,CaBdf1 BD2 Normalized (0 to 100%) WT,CaBdf1 BD2,0.333%
same,CaBdf1 BD2 Raw data WT,CaBdf1 BD2; first of two raw-data columns,0.01304
same,CaBdf1 BD2 Raw data WT,CaBdf1 BD2,0.004804
same,CaBdf1 BD1 Normalized (0 to 100%) WT,CaBdf1 BD1,0.798%
same,CaBdf1 BD1 Raw data WT,CaBdf1 BD1; first of two raw-data columns,0.009621
same,CaBdf1 BD1 Raw data WT,CaBdf1 BD1,0.005879
A Rme2s T Kme1 Q T A Rme2s K S T G G K A P R K Q,CaBdf1 BD2 Normalized (0 to 100%) YF mutant,CaBdf1 BD2 Y425F,0.147%
same,CaBdf1 BD2 Raw data YF mutant,CaBdf1 BD2 Y425F; first of two raw-data columns,0.001456
same,CaBdf1 BD2 Raw data YF mutant,CaBdf1 BD2 Y425F,0.001456
same,CaBdf1 BD1 Normalized (0 to 100%) YF mutant,CaBdf1 BD1 Y248F,0.45%
same,CaBdf1 BD1 Raw data YF mutant,CaBdf1 BD1 Y248F; first of two raw-data columns,0.004458
same,CaBdf1 BD1 Raw data YF mutant,CaBdf1 BD1 Y248F,0.01166
same,CaBdf1 BD2 Normalized (0 to 100%) WT,CaBdf1 BD2,0.444%
same,CaBdf1 BD2 Raw data WT,CaBdf1 BD2; first of two raw-data columns,0.006863
same,CaBdf1 BD2 Raw data WT,CaBdf1 BD2,0.01304
same,CaBdf1 BD1 Normalized (0 to 100%) WT,CaBdf1 BD1,0.326%
same,CaBdf1 BD1 Raw data WT,CaBdf1 BD1; first of two raw-data columns,0.004276
same,CaBdf1 BD1 Raw data WT,CaBdf1 BD1,0.004276
A Rme2s T Kme3 Q T A R Kme1 S T G G K A P R K Q,CaBdf1 BD2 Normalized (0 to 100%) YF mutant,CaBdf1 BD2 Y425F,0.195%
same,CaBdf1 BD1 Normalized (0 to 100%) YF mutant,CaBdf1 BD1 Y248F,0.831%
same,CaBdf1 BD1 Raw data YF mutant,CaBdf1 BD1 Y248F; first of two raw-data columns,0.00823
same,CaBdf1 BD1 Raw data YF mutant,CaBdf1 BD1 Y248F,0.002743
same,CaBdf1 BD2 Normalized (0 to 100%) WT,CaBdf1 BD2,0.444%
same,CaBdf1 BD2 Raw data WT,CaBdf1 BD2; first of two raw-data columns,0.01441
same,CaBdf1 BD2 Raw data WT,CaBdf1 BD2,0.005491
same,CaBdf1 BD1 Normalized (0 to 100%) WT,CaBdf1 BD1,0.471%
same,CaBdf1 BD1 Raw data WT,CaBdf1 BD1; first of two raw-data columns,0.00481
same,CaBdf1 BD1 Raw data WT,CaBdf1 BD1,0.005879
A Rme2s T Kme3 Q T A Rme2s K S T G G K A P R K Q,CaBdf1 BD2 Normalized (0 to 100%) YF mutant,CaBdf1 BD2 Y425F,0.244%
same,CaBdf1 BD2 Raw data YF mutant,CaBdf1 BD2 Y425F; first of two raw-data columns,0.002427
same,CaBdf1 BD2 Raw data YF mutant,CaBdf1 BD2 Y425F,0.003398
same,CaBdf1 BD1 Normalized (0 to 100%) YF mutant,CaBdf1 BD1 Y248F,0.346%
same,CaBdf1 BD1 Raw data YF mutant,CaBdf1 BD1 Y248F; first of two raw-data columns,0.003429
same,CaBdf1 BD1 Raw data YF mutant,CaBdf1 BD1 Y248F,0.004115
same,CaBdf1 BD2 Normalized (0 to 100%) WT,CaBdf1 BD2,0.444%
same,CaBdf1 BD2 Raw data WT,CaBdf1 BD2; first of two raw-data columns,0.008236
same,CaBdf1 BD2 Raw data WT,CaBdf1 BD2,0.01167
same,CaBdf1 BD1 Normalized (0 to 100%) WT,CaBdf1 BD1,0.29%
same,CaBdf1 BD1 Raw data WT,CaBdf1 BD1; first of two raw-data columns,0.003207
same,CaBdf1 BD1 Raw data WT,CaBdf1 BD1,0.00481
A Rme2s T Kme1 Q T A R Kme1 S T G G K A P R K Q,CaBdf1 BD2 Normalized (0 to 100%) YF mutant,CaBdf1 BD2 Y425F,0.342%
same,CaBdf1 BD2 Raw data YF mutant,CaBdf1 BD2 Y425F; first of two raw-data columns,0.003398
same,CaBdf1 BD1 Normalized (0 to 100%) YF mutant,CaBdf1 BD1 Y248F,0.658%
same,CaBdf1 BD1 Raw data YF mutant,CaBdf1 BD1 Y248F; first of two raw-data columns,0.006516
same,CaBdf1 BD1 Raw data YF mutant,CaBdf1 BD1 Y248F,0.005144
same,CaBdf1 BD2 Normalized (0 to 100%) WT,CaBdf1 BD2,0.518%
same,CaBdf1 BD2 Raw data WT,CaBdf1 BD2; first of two raw-data columns,0.01579
same,CaBdf1 BD2 Raw data WT,CaBdf1 BD2,0.005491
same,CaBdf1 BD1 Normalized (0 to 100%) WT,CaBdf1 BD1,0.29%
same,CaBdf1 BD1 Raw data WT,CaBdf1 BD1; first of two raw-data columns,0.003741
same,CaBdf1 BD1 Raw data WT,CaBdf1 BD1,0.004276
A Rme2a T Kme3 Q T A Rme2a K S T G G K A P R K Q,CaBdf1 BD2 Normalized (0 to 100%) YF mutant,CaBdf1 BD2 Y425F,0.293%
same,CaBdf1 BD2 Raw data YF mutant,CaBdf1 BD2 Y425F,0.002427
same,CaBdf1 BD1 Normalized (0 to 100%) YF mutant,CaBdf1 BD1 Y248F,0.658%
same,CaBdf1 BD1 Raw data YF mutant,CaBdf1 BD1 Y248F; first of two raw-data columns,0.006516
same,CaBdf1 BD1 Raw data YF mutant,CaBdf1 BD1 Y248F,0.004801
same,CaBdf1 BD2 Normalized (0 to 100%) WT,CaBdf1 BD2,0.444%
same,CaBdf1 BD2 Raw data WT,CaBdf1 BD2; first of two raw-data columns,0.01098
same,CaBdf1 BD1 Normalized (0 to 100%) WT,CaBdf1 BD1,0.363%
same,CaBdf1 BD1 Raw data WT,CaBdf1 BD1; first of two raw-data columns,0.004276
same,CaBdf1 BD1 Raw data WT,CaBdf1 BD1,0.00481
